Results: the supplement of paper PMC10567573

B1: EFHC1 (parent)
chain: NIYYYLEDDSMSVIEPVVENSGIL
B2: HESX1 (parent)
chain: ENKPSTCSFSIERILGLDQKKDCV

Variants of: B1
Assay: protein stability index of a GFP-peptide fusion (GPS, HEK-293T) (PSI 1-6); higher = more stable
Conditions: c terminus: a fixed tail appended
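Further: lentivirally expressed fusions sorted by FACS into six bins by GFP to DsRed ratio, PSI derived from sequencing read proportions per bin multiplied by bin number.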

Protein stability index: each site, then its substitutions
E15: C 3.27 | L 2.31 | Q 1.61 | A 2.22 | M 2.85 | K 2.34 | R 1.32 | Y 1.02 | W 2.39 | S 1.7
D9: R 2.09 | G 2.12 | P 2.02 | K 1.83 | T 1.37 | C 1.76 | N 1.69 | I 1.56 | A 2.09 | S 1.68 | Y 4.3
Y3: N 3.38 | G 3.43 | M 2.17 | K 2.72 | P 3.39 | C 2.9 | A 2.85 | T 3.64 | V 2.38 | L 2.15 | H 2.81 | I 2.23 | W 1.82
I23: C 2.12 | T 3.04 | R 1.99 | D 2.81 | Y 2.51 | V 1.8 | A 2.82 | Q 2.78 | H 2.43
Y4: S 3.48 | D 2.74 | G 3.49 | K 2.66 | P 4.01 | H 2.33 | I 1.49 | R 2.51 | N 2.35 | F 1.85 | V 1.24
V18: T 2.23 | W 1.13 | E 2.69 | C 1.82 | D 2.99 | F 1.85 | S 2.67 | M 1.66 | N 2.6 | L 2.16 | G 3.04
S21: R 1.74 | A 1.76 | F 1.45 | E 2.31 | C 2.57 | T 1.82 | V 1.6 | H 2.09 | Y 1.39 | D 2.4 | M 1.78 | G 2.23 | N 2.33
S10: D 2.36 | P 2.03 | M 2.13 | G 2.08 | L 1.14 | F 2.3 | N 3.24 | I 2.1 | V 1.68 | C 1.71 | A 2.02 | R 3.15
E19: S 1.35 | C 1.39 | Q 2.16 | A 1.59 | R 1.67 | M 1.86 | P 2.34 | F 1.89 | Y 2.53 | I 1.77 | D 2.01 | T 1.66 | N 1.69 | H 2.01 | V 2
V13: I 2.15 | M 2.23 | N 2.82 | C 1.85 | P 2.5 | Q 2.35 | A 1.72 | L 2.52 | E 3.1 | H 2.24 | D 2.86 | W 2.11 | S 2.17 | T 2.21 | R 1.81 | K 2.08
M11: A 2.75 | F 1.7 | G 2.05 | W 1.76 | T 2.38 | H 2.56 | D 3.39 | P 3.39 | R 2.32 | N 3.06 | Y 2.17 | I 2.51
I14: Y 1.93 | M 2.09 | H 2.45 | K 3.07 | P 3.08 | L 1.95 | Q 1.85 | F 1.98 | C 2.28 | D 3.11 | R 2.78
N20: T 1.71 | H 1.79 | G 2.77 | A 1.69 | C 1.93 | F 1.48 | L 3.52 | V 2.71 | S 2.13 | R 1.33 | Q 1.67 | E 2.46
V17: W 1.94 | Y 1.72 | K 2.31 | A 2.1 | H 2.15 | T 2.32 | P 2.85 | C 1.85 | L 1.74 | R 1.98 | Q 2.41 | F 2.88 | E 3.08 | S 1.88 | D 2.6
L6: A 3.01 | R 2.93 | M 2.25 | E 2.88 | P 4.08 | Q 2.84 | I 2.23 | F 1.72 | K 2.68 | N 3.57 | S 2.5 | T 2.71 | H 3.03 | V 2.23 | G 3.65 | C 2.24
S12: P 2.15 | K 1.85 | Q 1.92 | M 1.8 | H 2.53 | Y 1.2 | V 1.86 | W 2.16 | C 1.61 | T 1.58 | N 2.08
I2: M 2.96 | E 3.79 | L 2.05 | A 2.86 | N 3.23 | H 2.72 | Y 2.07 | F 1.82 | C 2.29 | K 3.44
P16: Q 2.17 | S 1.83 | Y 1.42 | R 2.11 | V 2.86 | C 2.54 | W 2.61 | N 1.65 | E 2.37 | M 2.57 | G 1.92 | F 2.73 | I 2.75
N1: P 2.15 | C 1.54 | E 2.48 | K 1.09 | M 2.34 | R 1.32 | F 2.88 | G 2.08 | S 2.19
G22: A 2.19 | K 1.78 | C 1.62 | Y 1.5 | S 1.7 | D 2.44 | N 2.25 | T 1.42 | I 1.81 | R 1.55 | E 2.71 | V 2.43 | L 1.51 | M 1.46
Y5: L 2.51 | A 3.1 | M 2.36 | Q 2.92 | T 2.79 | D 3.64 | F 1.94 | W 1.75 | G 3.27 | I 1.92 | R 3.35 | C 2.45 | H 2.69
D8: M 2.71 | S 2.6 | C 2.56 | V 3.11 | Q 1.91 | W 4.45 | Y 2.03 | F 2.17 | H 1.89 | K 1.6 | R 2.35 | G 2.47 | P 2.23
L24: S 2.58 | F 2.12 | N 2.48 | Q 2.36 | D 2.48 | H 2.31 | G 2.47 | R 2.46
E7: W 1.41 | T 2.38 | R 2.52 | D 1.89 | Q 1.94 | C 2.43 | H 1.3 | I 2.12 | M 2.09 | G 1.65

Variants of: B2
Assay: as above
Conditions: c terminus: a fixed tail appended

Protein stability index: each site, then its substitutions
D22: S 3.41 | R 3.08 | W 1.46 | T 2.02 | N 2.9 | Y 2.14 | V 1.56 | P 3.08 | Q 2.73
V24: M 2.89 | H 4.64 | W 2.18 | C 3.49 | Y 2.74 | E 4.25 | I 3.64 | S 2.88 | D 4.18 | L 3.03 | K 4.15 | R 3.38 | T 2.83 | A 3.81 | Q 3.81 | N 3.79 | F 2.91 | G 3.9 | P 3.14
C23: S 3.45 | V 3.41 | I 2.91 | P 3.29 | K 3.41 | H 3.33 | A 3.64 | L 2.7 | F 2.62 | E 3.6 | G 3.56 | D 4.38 | N 3.23 | Y 2.46 | Q 3.42 | M 2.83 | R 3.92 | T 3.16
